One molecule from patent US20250376520A1 (SINGAPORE HEALTH SERVICES PTE, published 2025) can be followed below.

The assay concerns the target human TRPM4 (transient receptor potential melastatin 4) channel, myc-tagged, expressed in HEK 293 cells (human, UniProt Q8TD43 1-1214). In words: cell-based or functional assay.

Sequence of human TRPM4 (transient receptor potential melastatin 4) channel, myc-tagged, expressed in HEK 293 cells (Q8TD43 whole entry): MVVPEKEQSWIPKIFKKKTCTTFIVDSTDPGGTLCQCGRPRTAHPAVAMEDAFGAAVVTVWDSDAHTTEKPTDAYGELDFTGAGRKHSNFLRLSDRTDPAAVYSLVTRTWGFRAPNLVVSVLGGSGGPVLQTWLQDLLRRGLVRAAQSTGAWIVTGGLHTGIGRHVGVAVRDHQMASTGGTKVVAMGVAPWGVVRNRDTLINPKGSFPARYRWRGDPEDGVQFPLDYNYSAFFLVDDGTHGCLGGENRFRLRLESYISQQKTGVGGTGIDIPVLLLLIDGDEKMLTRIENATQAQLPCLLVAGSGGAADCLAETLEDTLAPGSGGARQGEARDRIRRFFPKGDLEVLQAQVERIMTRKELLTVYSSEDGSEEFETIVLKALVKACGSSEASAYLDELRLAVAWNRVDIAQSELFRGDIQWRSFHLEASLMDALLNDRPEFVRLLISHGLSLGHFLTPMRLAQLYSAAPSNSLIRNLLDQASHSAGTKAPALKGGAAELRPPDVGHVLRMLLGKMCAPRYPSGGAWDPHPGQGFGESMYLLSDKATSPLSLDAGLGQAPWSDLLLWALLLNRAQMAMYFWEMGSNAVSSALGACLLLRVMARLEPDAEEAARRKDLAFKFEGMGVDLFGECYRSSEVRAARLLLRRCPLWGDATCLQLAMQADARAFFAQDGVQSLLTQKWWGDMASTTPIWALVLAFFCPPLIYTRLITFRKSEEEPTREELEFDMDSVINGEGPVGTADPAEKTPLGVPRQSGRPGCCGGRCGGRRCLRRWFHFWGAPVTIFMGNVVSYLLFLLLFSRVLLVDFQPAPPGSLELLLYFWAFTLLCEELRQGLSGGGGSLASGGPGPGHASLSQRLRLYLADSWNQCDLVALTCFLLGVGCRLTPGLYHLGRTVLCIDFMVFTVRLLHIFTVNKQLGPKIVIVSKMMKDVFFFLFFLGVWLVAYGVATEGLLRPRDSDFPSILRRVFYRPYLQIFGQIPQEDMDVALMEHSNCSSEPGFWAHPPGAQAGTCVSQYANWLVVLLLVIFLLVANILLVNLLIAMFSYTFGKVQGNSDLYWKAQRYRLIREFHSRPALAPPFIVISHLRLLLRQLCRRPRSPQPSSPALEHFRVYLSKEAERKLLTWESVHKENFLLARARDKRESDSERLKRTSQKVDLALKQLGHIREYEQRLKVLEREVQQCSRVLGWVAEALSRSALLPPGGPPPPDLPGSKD

B1: humanized anti-TRPM4 antibody clone A6 (VH2 + VL1), renamed M4H (antibody, human IgG1, kappa, V domains shown)
VH: QVQLQESGPGLVKPSQTLSLTCTVSGYSITSDYAWNWIRQHPGKGLEWMGYLSYSGVTSYNPSLKGRVTISRDTSKNQFSLKLSSVTAADTAVYYCARKGTYYRYEGSYWYFDVWGQGTTVTVSS
VL: DIQMTQSPSSLSASVGDRVTITCHANQNIDVWLSWYQQKPGKAPKLLIYKTSNLHTGVPSRFSGSGSGTDFTFTISSLQPEDIATYYCQQGQSYPLTFGGGTKLEIKR
With B1, the “IC50, dose-dependent inhibition of hypoxia-induced TRPM4 current increase” value is 1.04 µg/mL.
